Reference: US20260234738A1 (Regeneron, published 2026)
Positions count from the first letter of the chain named.

B1: mAb10956 (antibody, V domains shown)
VH: EVQLVESGGGLVQPGGSLRLSCAASGLTVSSNYMSWVRQAPGKGLEWVSVIYSGGSTFYADSVKGRFTISRDNSKNTLYLQMNSLRAEDTAVYYCARDLIKYGMDVWGQGTTVTVSS
VL: not shown
B2: mAb10957 (antibody, V domains shown)
VH: B1 VH with L27V, Y79F, A87I, I100G, K101P
VL: DIQLTQSPSFLSASVGDRVTITCRASQGISSYLAWYQQKPGKAPKLLIYAASTLQSGVPSRFSGSGSGTQFILTISSLQPEDFATYYCQQLNSYPGFTFGPGTKVDIKR
B3: mAb10978 (antibody)
heavy chain: QVQLVESGGGVVQPGRSLRLSCAASGFTFSSYAMHWVRQAPGKGLEWVAVISYDGSNKYYADSVKGRFTISRDNSKNTLYLQMNSLRAEDTAVYYCARDGRTITMVRGVIDDAFDIWGQGTMVTVSSASTKGPSVFPLAPCSRSTSESTAALGCLVKDYFPEPVTVSWNSGALTSGVHTFPAVLQSSGLYSLSSVVTVPSSSLGTKTYTCNVDHKPSNTKVDKRVESKYGPPCPPCPAPGGGGPSVFLFPPKPKDTLMISRTPEVTCVVVDVSQEDPEVQFNWYVDGVEVHNAKTKPREEQFNSTYRVVSVLTVLHQDWLNGKEYKCKVSNKGLPSSIEKTISKAKGQPREPQVYTLPPSQEEMTKNQVSLTCLVKGFYPSDIAVEWESNGQPENNYKTTPPVLDSDGSFFLYSRLTVDKSRWQEGNVFSCSVMHEALHNHYTQKSLSLSLGK
light chain: not shown
B4: mAb11002 (antibody, V domains shown)
VH: EVQLVESGGGLVQPGGSLRLSCAASGFTVSSNYMSWVRQAPGKGLEWVSVIYSGGSTFYADSVKGRFTISRHNSKNTLYLQMNSLRAEDTAVYYCAREGYGMDVWGQGTTVTVSS
VL: not shown
B5: mAb11004 (antibody, V domains shown)
VH: QVQLVESGGGVVQPGRSLRLSCVASGFTFSIYGMDWVRQAPGKGLEWVAVISYDGSNKYYADSVKGRFTISRDNSKNTLYLQMNSLRPEDTAVYYCAKDREAAADAFDIWGQGTMVTVSS
VL: DIQMTQSPSSVSASVGDRVTITCRASQGISSWLAWYQQKPGKAPKLLIYAASSLHSGVPSRFSGSGSGTDFTLTISSLQPEDFATYYCQQANSFRLTFGGGTKVEIK
B6: mAb10998 (antibody, V domains shown)
VH: EVQLVESGGGLVHPGGSLRLSCAASGLTVSSNYMSWVRQAPGKGLEWVSVIYSGGSTYYADSVKGRFTISRHNSKNTLFLQMNSLRAEDTAVYYCARDRPITGTTLDVWGQGTTVTVSS
VL: DIQMTQSPSSLFASVGDRVTITCRASQSISSYLNWYQQKPGKAPKLLIYAASSLQSGVPSRFSGSGSGTDFTLTISSLQPEDFAFYYCQQTYSTPPITFGQGTRLEIK
B7: mAb11010 (antibody, V domains shown)
VH: QVQLVESGGGVVQPGRSLRLSCAASGFTFSSYGMHWVRQAPGKGLEWVAVISYDGSYKYYADSVKGRFTISRDNSKNTLYLQMNSLRAEDTAVYYCAIDGGTVTTIFDYWGQGTLVTVSS
VL: not shown
B8: mAb11006 (antibody, V domains shown)
VH: EVQLVESGGGLVQPGGSLRLSCAASGFIVSRNYMSWVRQAPGKGLEWVSVIYSGGSTFYADSVKGRFTISRHNSKNTLYLQMNSLKAEDTAVYYCARELRGYFDYWGQGTLVTVSS
VL: DIQLTQSPSFLSASVGDRVTITCWASQGISSYLAWYQQKPGKAPKLLIYAASTLQSGVPSRFSGSGSGTEFTLTISSLQPEDFATYYCQLLNSYPYTFGQGTKLEIK
B9: mAb11008 (antibody, V domains shown)
VH: EVQLVESGGGLVQPGGSLRLSCAASGFTVSSNYMTWVRQAPGKGLEWVSVIYSGGSTFYADSVKGRFTISRHNSENTLYLQMNSLRAEDTAVYYCARDLAAAGTDYWGQGALVTVSS
VL: B8 VL with E81D, L90H, P95L

What follows are binders tested against SARS-CoV-2 Spike Protein (RBD) (R319-F541).hFc (SARS-CoV-2) (assay: Luminex beads, supernatant).
For B1, the MFI was 30200 MFI.
B2 showed an MFI of 22600 MFI.

These binders were tested against Bt-SARS-CoV-2 Spike Protein (RBD) (R319-F541).mFc (SARS-CoV-2) (assay: Luminex beads, supernatant).
B1 was tested, and the MFI was 12900 MFI.
B2 gave an MFI of 10600 MFI.

The binders below were run against SARS-CoV-2 Spike Protein (RBD) (R319-F541).mFc (SARS-CoV-2) (assay: Luminex beads, supernatant).
B1 gave an MFI of 28300 MFI.
With B2 the MFI was 18700 MFI.

Each binder was assayed against SARS-COV-2 RBD-hFc (SARS-CoV-2) (assay: not given).
With B3 the “IC50 (read off the curve)” value was roughly 0.1 nM.

Each binder was assayed against SARS-COV-2 spike protein receptor binding domain (amino acids Arg319 to Phe541) expressed with the F (SARS-CoV-2) (assay: not given).
Binder B4 has a Kd of 16.7 nM and a t½ of 0.0433 h.
B5 gave a Kd of 0.191 nM, a koff of 6.63e-05 s⁻¹ and a kon of 346000 M⁻¹ s⁻¹. For the same binder, the t½ was 2.9 h.
Binder B6 has a Kd of 1.58 nM, a koff of 0.000521 s⁻¹ and a kon of 330000 M⁻¹ s⁻¹. The t½ was 0.37 h.
B7 was tested, and the Kd was no more than 0.0236 nM and the t½ was no less than 19.2 h.
B8 gave a Kd of no more than 0.0532 nM and a t½ of no less than 19.2 h.
Work on B9 yielded a Kd of 0.715 nM, a koff of 0.000115 s⁻¹ and a kon of 161000 M⁻¹ s⁻¹. The t½ was 1.67 h.
